Measurements published in IntAct's records for PubMed 22357847.

How the values were obtained:
rae1l_rat Rae1 [1] = biological target: rae1l_rat Rae1 (UniProt Q3SWS8)
rae1_caeel rae-1 = rae1_caeel rae-1 (UniProt Q93454)
rae1l_rat Rae1 [2] = biological target: rae1l_rat Rae1 (UniProt Q3SWS8); remark: listed apart in the source

Chain of UniProt Q3SWS8 (Q3SWS8 whole entry): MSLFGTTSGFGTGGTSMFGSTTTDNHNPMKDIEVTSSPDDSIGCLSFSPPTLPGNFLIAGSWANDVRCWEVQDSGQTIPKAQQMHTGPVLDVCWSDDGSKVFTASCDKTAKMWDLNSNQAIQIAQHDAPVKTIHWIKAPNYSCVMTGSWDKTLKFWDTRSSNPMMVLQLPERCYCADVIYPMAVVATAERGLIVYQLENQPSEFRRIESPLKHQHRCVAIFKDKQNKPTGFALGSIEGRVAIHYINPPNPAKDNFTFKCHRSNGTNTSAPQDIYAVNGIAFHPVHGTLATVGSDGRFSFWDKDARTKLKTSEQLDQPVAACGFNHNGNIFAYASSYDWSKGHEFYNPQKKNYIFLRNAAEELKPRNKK
Chain of UniProt Q93454 (Q93454 whole entry): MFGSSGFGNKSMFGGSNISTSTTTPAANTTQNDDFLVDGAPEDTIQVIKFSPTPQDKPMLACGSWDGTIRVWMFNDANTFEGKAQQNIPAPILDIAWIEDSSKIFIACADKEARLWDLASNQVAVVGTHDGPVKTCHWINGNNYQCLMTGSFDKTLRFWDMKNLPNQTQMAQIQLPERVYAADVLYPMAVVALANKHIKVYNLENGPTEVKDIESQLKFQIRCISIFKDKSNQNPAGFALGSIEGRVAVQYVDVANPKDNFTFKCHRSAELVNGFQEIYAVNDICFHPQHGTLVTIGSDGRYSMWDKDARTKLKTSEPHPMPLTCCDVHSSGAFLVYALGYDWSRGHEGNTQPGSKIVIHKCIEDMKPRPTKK

effect of a mutation on the interaction (rae1l_rat Rae1 [1]) | effect of a mutation on the interaction (rae1_caeel rae-1) | effect of a mutation on the interaction (rae1l_rat Rae1 [2]) | Substance
disrupting interaction strength |  |  | E3 ubiquitin-protein ligase rpm-1 (Caenorhabditis elegans), Q17551 R2088A
decreasing interaction strength | disrupting interaction strength | disrupting interaction strength | E3 ubiquitin-protein ligase rpm-1 (Caenorhabditis elegans), Q17551 V2084A;I2087A;R2088A
